Results reported in patent US20110263454A1, “Methods of Identifying Functional Characteristics of Promoters, Transcription Modifying Proteins and Transcription Modulating Agents” (Salk Institute for Biological Studies, priority 2008, published 2011).

B1: RVRb: Rev-Erb β (NR1D2, alternative name RVR), cDNA driver (protein, UniProt Q14995 1-579, looked up)
Nuclear receptor subfamily 1 …: MEVNAGGVIAYISSSSSASSPASCHSEGSENSFQSSSSSVPSSPNSSNSDTNGNPKNGDLANIEGILKNDRIDCSMKTSKSSAPGMTKSHSGVTKFSGMVLLCKVCGDVASGFHYGVHACEGCKGFFRRSIQQNIQYKKCLKNENCSIMRMNRNRCQQCRFKKCLSVGMSRDAVRFGRIPKREKQRMLIEMQSAMKTMMNSQFSGHLQNDTLVEHHEQTALPAQEQLRPKPQLEQENIKSSSPPSSDFAKEEVIGMVTRAHKDTFMYNQEQQENSAESMQPQRGERIPKNMEQYNLNHDHCGNGLSSHFPCSESQQHLNGQFKGRNIMHYPNGHAICIANGHCMNFSNAYTQRVCDRVPIDGFSQNENKNSYLCNTGGRMHLVCPMSKSPYVDPHKSGHEIWEEFSMSFTPAVKEVVEFAKRIPGFRDLSQHDQVNLLKAGTFEVLMVRFASLFDAKERTVTFLSGKKYSVDDLHSMGAGDLLNSMFEFSEKLNALQLSDEEMSLFTAVVLVSADRSGIENVNSVEALQETLIRALRTLIMKNHPNEASIFTKLLLKLPDLRSLNNMHSEELLAFKVHP
B2: RVRa: Rev-Erb α (NR1D1), cDNA driver (protein, UniProt P20393 1-614, looked up)
Nuclear receptor subfamily 1 …: MTTLDSNNNTGGVITYIGSSGSSPSRTSPESLYSDNSNGSFQSLTQGCPTYFPPSPTGSLTQDPARSFGSIPPSLSDDGSPSSSSSSSSSSSSFYNGSPPGSLQVAMEDSSRVSPSKSTSNITKLNGMVLLCKVCGDVASGFHYGVHACEGCKGFFRRSIQQNIQYKRCLKNENCSIVRINRNRCQQCRFKKCLSVGMSRDAVRFGRIPKREKQRMLAEMQSAMNLANNQLSSQCPLETSPTQHPTPGPMGPSPPPAPVPSPLVGFSQFPQQLTPPRSPSPEPTVEDVISQVARAHREIFTYAHDKLGSSPGNFNANHASGSPPATTPHRWENQGCPPAPNDNNTLAAQRHNEALNGLRQAPSSYPPTWPPGPAHHSCHQSNSNGHRLCPTHVYAAPEGKAPANSPRQGNSKNVLLACPMNMYPHGRSGRTVQEIWEDFSMSFTPAVREVVEFAKHIPGFRDLSQHDQVTLLKAGTFEVLMVRFASLFNVKDQTVMFLSRTTYSLQELGAMGMGDLLSAMFDFSEKLNSLALTEEELGLFTAVVLVSADRSGMENSASVEQLQETLLRALRALVLKNRPLETSRFTKLLLKLPDLRTLNNMHSEKLLSFRVDAQ
B3: RARb: Retinoic acid receptor β (NR1B2), nuclear hormone receptor cDNA driver (protein, UniProt P10826 1-455, looked up)
Retinoic acid receptor beta: MTTSGHACPVPAVNGHMTHYPATPYPLLFPPVIGGLSLPPLHGLHGHPPPSGCSTPSPATIETQSTSSEELVPSPPSPLPPPRVYKPCFVCQDKSSGYHYGVSACEGCKGFFRRSIQKNMIYTCHRDKNCVINKVTRNRCQYCRLQKCFEVGMSKESVRNDRNKKKKETSKQECTESYEMTAELDDLTEKIRKAHQETFPSLCQLGKYTTNSSADHRVRLDLGLWDKFSELATKCIIKIVEFAKRLPGFTGLTIADQITLLKAACLDILILRICTRYTPEQDTMTFSDGLTLNRTQMHNAGFGPLTDLVFTFANQLLPLEMDDTETGLLSAICLICGDRQDLEEPTKVDKLQEPLLEALKIYIRKRRPSKPHMFPKILMKITDLRSISAKGAERVITLKMEIPGSMPPLIQEMLENSEGHEPLTPSSSGNTAEHSPSISPSSVENSGVSQSPLVQ
B4: PPARd: Peroxisome proliferator activated receptor δ (NR1C2), cDNA driver (protein, UniProt Q03181 1-441, looked up)
Peroxisome …: MEQPQEEAPEVREEEEKEEVAEAEGAPELNGGPQHALPSSSYTDLSRSSSPPSLLDQLQMGCDGASCGSLNMECRVCGDKASGFHYGVHACEGCKGFFRRTIRMKLEYEKCERSCKIQKKNRNKCQYCRFQKCLALGMSHNAIRFGRMPEAEKRKLVAGLTANEGSQYNPQVADLKAFSKHIYNAYLKNFNMTKKKARSILTGKASHTAPFVIHDIETLWQAEKGLVWKQLVNGLPPYKEISVHVFYRCQCTTVETVRELTEFAKSIPSFSSLFLNDQVTLLKYGVHEAIFAMLASIVNKDGLLVANGSGFVTREFLRSLRKPFSDIIEPKFEFAVKFNALELDDSDLALFIAAIILCGDRPGLMNVPRVEAIQDTILRALEFHLQANHPDAQYLFPKLLQKMADLRQLVTEHAQMMQRIKKTETETSLHPLLQEIYKDMY
B5: RARa: Retinoic acid receptor α (NR1B1), nuclear hormone receptor cDNA driver (protein, UniProt P10276 1-462, looked up)
Retinoic acid receptor alpha: MASNSSSCPTPGGGHLNGYPVPPYAFFFPPMLGGLSPPGALTTLQHQLPVSGYSTPSPATIETQSSSSEEIVPSPPSPPPLPRIYKPCFVCQDKSSGYHYGVSACEGCKGFFRRSIQKNMVYTCHRDKNCIINKVTRNRCQYCRLQKCFEVGMSKESVRNDRNKKKKEVPKPECSESYTLTPEVGELIEKVRKAHQETFPALCQLGKYTTNNSSEQRVSLDIDLWDKFSELSTKCIIKTVEFAKQLPGFTTLTIADQITLLKAACLDILILRICTRYTPEQDTMTFSDGLTLNRTQMHNAGFGPLTDLVFAFANQLLPLEMDDAETGLLSAICLICGDRQDLEQPDRVDMLQEPLLEALKVYVRKRRPSRPHMFPKMLMKITDLRSISAKGAERVITLKMEIPGSMPPLIQEMLENSEGLDTLSGQPGGGGRDGGGLAPPPGSCSPSLSPSSNRSSPATHSP
B6: RARg: Retinoic acid receptor γ (NR1B3), nuclear hormone receptor cDNA driver (protein, UniProt P13631 1-454, looked up)
Retinoic acid receptor gamma: MATNKERLFAAGALGPGSGYPGAGFPFAFPGALRGSPPFEMLSPSFRGLGQPDLPKEMASLSVETQSTSSEEMVPSSPSPPPPPRVYKPCFVCNDKSSGYHYGVSSCEGCKGFFRRSIQKNMVYTCHRDKNCIINKVTRNRCQYCRLQKCFEVGMSKEAVRNDRNKKKKEVKEEGSPDSYELSPQLEELITKVSKAHQETFPSLCQLGKYTTNSSADHRVQLDLGLWDKFSELATKCIIKIVEFAKRLPGFTGLSIADQITLLKAACLDILMLRICTRYTPEQDTMTFSDGLTLNRTQMHNAGFGPLTDLVFAFAGQLLPLEMDDTETGLLSAICLICGDRMDLEEPEKVDKLQEPLLEALRLYARRRRPSQPYMFPRMLMKITDLRGISTKGAERAITLKMEIPGPMPPLIREMLENPEMFEDDSSQPGPHPNASSEDEVPGGQGKGGLKSPA

test system: hPOMC promoter; assay: NHR-promoter luciferase screen, hPOMC promoter; assay type: cell-based, human; details: hPOMC promoter; HR/ligand component
Procedure, shortened: (§1)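 CV-1 cells were co-transfected with 50 ng NHR (homodimer or NHR/RXR heterodimer), 100 ng promoter-luciferase construct and 50 ng LacZ. Luciferase was normalized to LacZ and to a no-NHR/no-ligand control.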

Molecule | Luc. act., normalized to lacZ | Normalized Luc. act., normalized to control
B1 | 2.8 | 0.7
B2 | 2.3 | 0.5
B3 | 4.3 | 1.0
B4 | 3.8 | 0.9
B5 | 3.2 | 0.7
B6 | 3.7 | 0.9

same assay, conditions: transcription factor +/- ligand; control = 1.00

Molecule | hPOMC promoter reporter activity
B1 | 0.66
B2 | 0.53
B3 | 1.00
B4 | 0.89
B5 | 0.74
B6 | 0.87

test system: mGhrelin promoter; assay: NHR-promoter luciferase screen, mGhrelin promoter; assay type: cell-based, mouse; details: Table 8; mGhrelin
Procedure, shortened: as §1

Molecule | Luc. act., normalized to lacZ | Normalized Luc. act., normalized to control
B1 | 126.8 | 2.4
B2 | 79.3 | 1.5
B3 | 84.4 | 1.6
B4 | 56.1 | 1.1
B5 | 67.2 | 1.3
B6 | 88.8 | 1.7

same assay, conditions: Table 6d; luciferase activity relative to control (control = 1.00)

Molecule | Results of assays of transcription factor (+/- ligand) with mGhrelin
B1 | 2.43
B2 | 1.52
B3 | 1.61
B4 | 1.07
B5 | 1.29
B6 | 1.70

test system: mLeptin promoter; assay: NHR-promoter luciferase screen, mLeptin promoter; assay type: cell-based, mouse; details: Table 7; mLeptin
Procedure, shortened: as §1

Molecule | Luc. act., normalized to lacZ | Normalized Luc. act., normalized to control
B1 | 4.4 | 1.5
B2 | 2.5 | 0.9
B3 | 2.7 | 0.9
B4 | 2.6 | 0.9
B5 | 2.4 | 0.8
B6 | 3.6 | 1.2

same assay, conditions: Table 6d; luciferase activity relative to control (control = 1.00)

Molecule | Results of assays of transcription factor (+/- ligand) with mLeptin
B1 | 1.50
B2 | 0.86
B3 | 0.91
B4 | 0.89
B5 | 0.82
B6 | 1.21

test system: mUCP3 promoter; assay: NHR-promoter luciferase screen, mUCP3 promoter; assay type: cell-based, mouse; details: mUCP3 promoter reporter; HR without or with its ligand; relative to control
Procedure, shortened: as §1

Molecule | Normalized Luc. act., normalized to control
B1 | 1.9
B2 | 1.2
B3 | 2.1
B4 | 1.7
B5 | 1.8
B6 | 2.0

same assay, conditions: mUCP3 promoter reporter; hormone receptor (HR) without or with its ligand

Molecule | Luc. act., normalized to lacZ
B1 | 1.3
B2 | 0.8
B3 | 1.4
B4 | 1.1
B5 | 1.2
B6 | 1.3

same assay, conditions: transcription factor +/- ligand; control = 1.00

Molecule | mUCP3 promoter reporter activity
B1 | 1.91
B2 | 1.24
B3 | 2.08
B4 | 1.69
B5 | 1.76
B6 | 1.98

test system: hMDR1 promoter; assay: NHR-promoter luciferase screen, hMDR1 promoter; assay type: cell-based, human; details: MDR1 promoter; HR/ligand component
Procedure, shortened: as §1

Molecule | Luc. act., normalized to lacZ | Normalized Luc. act., normalized to control
B1 | 0.3 | 0.9
B2 | 0.2 | 0.6
B3 | 0.3 | 1.0
B4 | 0.3 | 0.9
B5 | 0.2 | 0.7
B6 | 0.3 | 0.8

same assay, conditions: transcription factor +/- ligand; control = 1.00

Molecule | hMDR1 promoter reporter activity
B1 | 0.94
B2 | 0.64
B3 | 0.97
B4 | 0.90
B5 | 0.67
B6 | 0.85
